Data on 15 molecules can be found in patent publication US20240101708A1 (Genentech, published 2024).

T1: recombinant human RNF43 extracellular domain (human, UniProt Q68DV7 24-197)
T1 construct: extracellular domain; also called huRNF43; human RNF43 ECD
T1 sequence (looked up): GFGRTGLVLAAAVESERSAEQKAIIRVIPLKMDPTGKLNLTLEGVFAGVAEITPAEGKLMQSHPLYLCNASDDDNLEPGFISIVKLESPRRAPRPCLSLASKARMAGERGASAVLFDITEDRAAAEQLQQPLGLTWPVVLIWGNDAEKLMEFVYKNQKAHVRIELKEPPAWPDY

B1: RNF43-9 (antibody, V domains shown)
VH: QSLEESGGDLVQPEGSLTLTCTASGFSFSSSCYMCWVRQAPGKGLEWIACINTGSSGSTYYASWAKGRFTISKTSSTTVTLQMTILTAADTATYFCARGYAGYTGYGQFNLWGPGTLVTVSS
VL: QIVMTQTPASVEAAVGGTVTIKCQASQSISNYLAWYQQKPGQRPKLLIYDASKLASGVPSRFKGSGSGTQFTLTISGVECADAATYYCQQGYTMNNVDNAFGGGTEVVVK
notes: Rabbit clone; VH/VL only
B2: RNF43-22 (antibody, V domains shown)
VH: QEQLEESGGDLVKPGASLTLTCTASGFSVSNSYYMCWVRQAPGKGLEWIACINTGSSGSTYYASWAKGRFTISKTSSTTVTLQMTTLTAADTATYFCARGYAGYAGYGQFNLWGPGTLVTVSS
VL: AYDMTQTPASVEVAVGGTVTIKCQASQSISSYLAWYQQKPGQRPKVLIYDVSKLASGVPSRFKGSGSGTQFTLTISGVECADAATYYCQQGYSMSNVDNTFGGGTEVVVK
notes: Rabbit clone; VH/VL only
B3: RNF43-13 (antibody, V domains shown)
VH: QSLEESGGGLVKPGGTLTLTCKASGIDFSGYYYMCWVRQAPGKGLEWIACIYTTSGSAWYASWAKGRFTISITTSLNTVTLQMTSLTATDTATYFCVRYANYGGYNYPEFGVLWGPGTLVTVSS
VL: AYDMTQTPASVEVAVGATVTIKCQASEDIYNLLAWYQQKPGQPPKLLIYRASKLASGVPSRFSGSGSGTEFTLTISSVQCDDAATYYCQQGYSISNVENPFGGGTEVVVK
notes: Rabbit clone; VH/VL only
B4: RNF43-21 (antibody, V domains shown)
VH: QSLEESGGDLVKPGASLTLTCTASGFSFSSSYYMCWVRQAPGKGLEWIACIYAGSSGSTYYASWAKGRFTVSKTSSTTVTLQMTSLTAADTATYFCARYTYGSGSDSYFNLWGPGTLVTVSS
VL: AYDMTQTPASVEAAVGGTVTIQCQASQSIGSYLAWYQQKPGQPPKLLIYRASTLSSGVPSRFKGSGSGTQFTLTISDLECADAATYYCQQGYSITNLDNGFGGGTEVVVK
notes: Rabbit clone; VH/VL only
B5: RNF43-17 (antibody, V domains shown)
V domain 1: QSVEESGGRLVTPGTPLTLTCTGSGFSLSNYAMGWVRQAPGKGLEYIGIIYASGSTWYASWAKGRFTISKTSTTVDLKITSPATEDTATYFCCRDATTTYDRLDLWGQGTLITVSS
V domain 2: AFELTQTPSSVEAAVGGTVTIKCQASQSISKWLAWYQQKPGQPPKLLIYRASTLPSGVPSRFKGSGSGTEFTLTISGVECADAATYYCQQGYSVTNLDEAFGGGTEVVVK
notes: Rabbit clone; VH/VL only
B6: RNF43-15 (antibody, V domains shown)
VH: QEQLEESGGDLVKPGASLTLTCTASRFSFSNDDVICWVRQAPGKGLEWIGCIATINGNTAYATWAKGRFTSSKTSSTTVTLQMTRLTAADTATYFCARWDTGSEHVTLWGPGTLVTVSS
VL: AYDMTQTPASVEVAVGGTVTIKCQASQSISSYLAWYQQKPGQPPKPLIYEASKLASGVPSRFSGSGSGTQFTLTISGVQCADAATYYCQQGASWSNVDNVFGGGTEVVVK
notes: Rabbit clone; VH/VL only
B7: RNF43-23 (antibody, V domains shown)
VH: QEQVVESGGGLVQPEGSLTLTCKGSGFDFSGNVLCWVRQAPGKGLEWIGCIATGIGSTAYASWAKGRFTITRGTSLNTVDLKMTSLTAADTATYFCARYVSGSEYYNFWGPGTLVTVSS
VL: AYDMTQTPASVEVAVGGTVTIKCQASQSISSFLAWYQQKPGQPPMLLIYKASTLASGVPSRFKGSGSGTQFTLTISGVECADAATYYCQQGYSWNGVDNTFGGGTEVVVK
notes: Rabbit clone; VH/VL only
B8: RNF43-69 (antibody, V domains shown)
VH: EVQLVESGGGLVQPGRSLKLSCAASGFTFSDYYMAWVRQAPKKGLEWVASITYEGSSTYYGDSVKGRFTISRDNAKSTLYLQMNSLRSEDTATFYCARHLDYGYDYAWYFDFWGPGTMVTVSS
VL: DIVLTQSPTTLSVTPGETVSLSCRTSHSIGTNLHWYQQKTNESPRLLIKYASQSISGIPSRFSASGSGTDFTLNINNVEFDDVSSYFCQQTQSWPLTFGSGTKLEIK
notes: Rat clone; VH/VL only
B9: RNF43-75 (antibody, V domains shown)
VH: EVQLVESGGGLVQPGRSLKLSCAASGFTFSDHYMAWVRQAPKKGLEWVASITYEGSSTYYGDSVKGRFTISRDNAKSTLYLQMNSLRSEDTATFYCARHLDYGYDYAWSFDFWGPGTMVTVSS
VL: DIVLTQSPIILSVTPGETVSLSCRTSHSIGTNLHWYQQKTNESPRLLINYASQSISGIPSRFSASGSGTDFTLNINNVEFEDVASYYCQQTQRWPLTFGSGTKLEIK
notes: Rat clone; VH/VL only
B10: RNF43-14 (antibody, V domains shown)
VH: QSVEESGGRLVTPGTPLTLTCTVSGIDLSSYAMGWVRQAPGKGLEYIGFIYASGSTYYASWAKGRFTISKTSTTVDLKITSPTTEDTATYFCARDSSETINYFNIWGPGTLVTVSL
VL: NIVMTQTPSPVSGAVGGTVTIKCQASQSISNWLAWYQQKPGQPPKVLIYRASTLASGVSSRFKGSGSGTEFTLTISDLECADAATYYCQQGYYISYLDNAFGGGTEVVVK
notes: Rabbit clone; VH/VL only
B11: RNF43-33 (antibody, V domains shown)
VH: QEQLKESGPGLVQPSQTLSLTCTVSGFSLTSYNVHWVRQPPRKGLEWMGRMRYNGDTSYNSALKSRLSISRDTSKNQVFLKMNSLQTDDTGTYYCARGPLWDYWGQGVMVTVSS
VL: DVVLTQTPPTLSATIGQSVSVSCRSSQSLLHSNGNTYLNWLLQRPGQPPQLLIYLVSRLESGVPNRFSGSGSGTDFTLKISGVEAEDLGVYYCVQSTHAPYTFGAGTKLELK
notes: Rat clone; VH/VL only
B12: RNF43-6 (antibody, V domains shown)
VH: QSLEESGGRLVTPGTPLTLTCTVSGFSLSAFGMNWVRQAPGKGLEWIGYISAGGSAVYPNWAEGRFTISKASTTVTLKMTSLTTEDTATYFCVRGGYVGSTNSLWGPGTLVTVSS
VL: AAVLTQTPSPVSAAVGGTVSISCQSSKSVHNNNWLAWYQQKPGQPPKLLIYGASTLASGVPSRFKGSGSGTQFTLTISDVQCDDAATYYCSGGYSSIIDNGFGGGTDVVVE
notes: Rabbit clone; VH/VL only
B13: RNF43-210 (antibody, V domains shown)
VH: QIQLVQSGPELKKPEESVKISCKASGYIFTDYLIHWVKQAPGEGLKWMGWINTYTGKPTYADDFKGRFVFSLEASASTAILQISNLKNEDTATYFCALGPITTVVYVMDAWGQGTSVTVSS
VL: DIQMTQSPSFLSASVGDRVTINCKASQNINKYLNWYQQKLGEAPKRLIYNTNNLQTDIPSRFSGSGSGADYTLTINSLQPEDFATYFCLQHNSFPYTFGAGTKLELK
notes: Rat clone; VH/VL only
B14: RNF43-35 (antibody, V domains shown)
VH: QVQLKESGPGLVQPSQTLSLTCTVSGFSLTTYSVHWVRQHSGKNLEWMGRMWTAGDTSYNSAFTSRLNIFRDTSKSQVFLKMNSLQTEDTGTYYCARSSYTSGYPFDSWGQGVMVTVSS
VL: DTVLTQSPALAVSPGERVTISCRASESVSKLMHWYQQRPGQQPQLLIYLTSHLASGVPARFSGSGSGTDFTLTIDPVEADDTATYYCQQSRNDPTFGAGTKLELK
notes: Rat clone; VH/VL only
B15: RNF43-90 (antibody, V domains shown)
VH: QVQLKESGPGLVQPSQTLSLTCTVSGFSLTSYSVHWVRQHSGNRLEWMGRMWSAGDTSFNSAFTSRLNITRDTSKSQVFLKMNSLQTEDTGTYYCVRSFYNAGYPFDYWGQGVMVTVSS
VL: DTVLTQSPALAVSPGERVTISCRASDSVIKLMNWYQQKPGQRPKLLIYLASHLASGVPARFSGSGSGTDFTLTIDPVETDDTATYYCQQSRNDPTFGPGTKLELK
notes: Rat clone; VH/VL only

For this assay, the target named is T1, recombinant human RNF43 extracellular …. The experiment in a line: SPR Biacore 8K; antibody captured on Protein A; RNF43 ECD analyte; 25 C. On the procedure:
Antibodies were screened for binding to recombinant human RNF43 and ZNRF3 ECDs using a Biacore® 8 k instrument (GE Life Sciences). Briefly, antibodies diluted to 1 μg/ml in 1×HBSP buffer (Cytiva, BR100368) were captured on a Sensor Chip Protein A (GE Life Sciences) using a flow rate of 10 μl/minute and a contact time of 60 seconds. Binding of recombinant human RNF43 and ZNRF3 extracellular domain to the captured antibodies was analyzed at 25° C. using a single cycle kinetics method with a flow rate of 30 μl/minute, a contact time of 180 seconds and a dissociation time of 600 seconds. The concentration of recombinant human RNF43 and ZNRF3 extracellular domain in the single cycle kinetics were 0, 0.8, 4, 20, and 100 nM. Between cycles, the chip was regenerated using 10 mM Glycine HCl pH 1.5 injected for 30 seconds at 30 μl/minute. Data were evaluated using Biacore 8K Evaluation software (GE Life Sciences). Kinetic constants were obtained using a 1:1 binding model with the parameter RI set to zero. Cell surface ligase antibodies with sub-nanomolar affinities may provide advantages in certain instances, for example, in the degradation efficiency which is correlated with the durability of the ternary complex as shown in FIG. 5D.
A general note: In SPR one partner is held on a chip, and binding of the other changes the refractive index at the surface.
The term Kd denotes the equilibrium constant for the complex coming apart. Turning to B1, the Kd amounted to 1.8 nM. With B2 the figure was 0.5 nM; with B3, 99.6 nM; with B4, 10.3 nM. On to B5, for which the Kd amounted to 6.7 nM. To B6 belongs 8 nM; to B7, 85 nM. With B8 the figure was 16.8 nM; with B9, 4.65 nM. With B10 the figure was 0.8 nM. B11: the Kd came to 63 nM. With B12, the Kd is 10.3 nM. With B13 the figure was 13.4 nM; with B14, 0.07 nM. In the case of B15, the equilibrium dissociation constant (Kd) was found to be 0.29 nM.
